Reference: publication PMC3896397
pKd: −log10 of the molar value.

Biological target: Recombinant Human VEGF-A165 (human)
Test: ELISA; VEGF 165 (0.5 ug) on 96-well plates; serial dilutions (0.05 to 10 uM) of Flag-tagged HSPB1 wild type or C-terminal HSPB1 in PBS plus 1% BSA, 37°C, 2 hours; detected with anti-flag monoclonal antibody; Kd by Scatchard analysis

Row | pKd | Substance
1 | 6.11 | C-terminal HSPB1 fragment, secretory HSPB1 (59-203) (from UniProt P04792 59-203) (domain or fragment)
2 | 4.97 | Flag-tagged secretory wild-type HSPB1 (from UniProt P04792 1-205) (natural protein)
